One may read the stoichiometry N as a count of units in the complex or per binding partner.

This note sets out measurements from PMC2971551.

In the assay the target is truncated neck domain fragment of DC-SIGNR (neck lacking the N-terminal non-repeat region and the first half of the first repeat unit) (human). As to the kind of experiment: SEC; gel filtration of the purified truncated fragment; profile superimposed on that of the previously described DC-SIGN extracellular domain. A general note: In gel filtration, larger molecules generally elute earlier.

As to “truncated neck domain fragment of DC-SIGNR (neck lacking the N-terminal non-repeat region and the first half of the first repeat unit) (domain or fragment)”, the stoichiometry N came out at 4.
